Holding throughout (details): protein: recombinant; tags: C-terminal Cys added, labeled with Alexa 488 C5-maleimide; blunt
The target of data set [1] is T1, EngHD (Engrailed homeodomain, DNA-binding domain) (Drosophila melanogaster, UniProt P02836 454-513).
T1 sequence: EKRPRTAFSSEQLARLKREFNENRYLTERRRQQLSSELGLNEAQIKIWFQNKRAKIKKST
Put plainly: FCS; minimal difference from N7; FCS, ~1 nM Alexa 488-EngHD with unlabeled dsDNA titrated; ionic strength 50 mM (NaCl) unless stated; buffer, pH and temperature not in the material.

Data set [2] concerns the target T1, EngHD (Engrailed homeodomain, …). Put plainly: FCS; affinity unchanged vs N8; FCS, ~1 nM Alexa 488-EngHD with unlabeled dsDNA titrated; ionic strength 50 mM (NaCl) unless stated; buffer, pH and temperature not in the material.
Data set [3] has the same target. Put plainly: FCS; 50 mM ionic strength; FCS, ~1 nM Alexa 488-EngHD with unlabeled dsDNA titrated; ionic strength 50 mM (NaCl) unless stated; buffer, pH and temperature not in the material.
Data set [4] has the same target. Described as above. The source holds these as a separate data set.
Data set [5] shares this target. The data set is described as above. This is another data set of the same source.
The target is the same in data set [6]. The data set is described as above. The source holds these as a separate data set.
Data set [7] shares this target. Described as above. The source holds these as a separate data set.
For data set [8] the target is unchanged. The description is as above. This is another data set of the same source.

From publication PMC6987225, “Eukaryotic transcription factors can track and control their target genes using DNA antennas” come the findings set out here.

Numbering of substitutions follows the chain as printed.

B1: 75 bp CGTGTT shuffled (m5) (dsDNA)
DNA 1: GCTCGACATAGATCTGACTGACATGCTATCAGTCTACGTGTTCAGTCTAGCTGTGCATCGATCTATACATCTAGC
DNA 2: GCTAGATGTATAGATCGATGCACAGCTAGACTGAACACGTAGACTGATAGCATGTCAGTCAGATCTATGTCGAGC
B1: in data set [1], the binding result is listed as “binds”.

B2: 150 bp TAATTG half original/half shuffled (m8) (dsDNA)
DNA 1: TACTCATCGATACTCAGTACTCGCGACGCATCGTGTACGCCCGAAATAAATCTGGCCGAAAAGCCATCAATCTATAATTGCAATCTAACTGTGCCTCGGTTTATACCTCCAACTGCAGTACACTGATATGACAGACAGTATGCTCACATA
DNA 2: TATGTGAGCATACTGTCTGTCATATCAGTGTACTGCAGTTGGAGGTATAAACCGAGGCACAGTTAGATTGCAATTATAGATTGATGGCTTTTCGGCCAGATTTATTTCGGGCGTACACGATGCGTCGCGAGTACTGAGTATCGATGAGTA
On to B2, for which the binding result in data set [2] is on record as “binds”.

B3: 38 bp TAATTG (dsDNA)
DNA 1: AAAAGCCATCAATCTATAATTGCAATCTAACTGTGCCT
DNA 2: AGGCACAGTTAGATTGCAATTATAGATTGATGGCTTTT
Consider B3, for which the Kd in data set [3] was 7.26 -log10 M.

B4: 75 bp TAATTG (m2) (dsDNA)
DNA 1: GCCCGAAATAAATCTGGCCGAAAAGCCATCAATCTATAATTGCAATCTAACTGTGCCTCGGTTTATACCTCCAAC
DNA 2: GTTGGAGGTATAAACCGAGGCACAGTTAGATTGCAATTATAGATTGATGGCTTTTCGGCCAGATTTATTTCGGGC
For the molecule B4, in data set [4], the dissociation constant (Kd) was 7.44 -log10 M.

B5: 75 bp CGTGTT (m4) (dsDNA)
DNA 1: B4 DNA 1 with T37C, A38G, A39T, T40G, G42T
DNA 2: B4 DNA 2 with C34A, A36C, T37A, T38C, A39G
Regarding B5, the binding signal in data set [5] was 22 fold lower affinity than TAATTA (N3).

B6: 75 bp TAATTT (dsDNA)
DNA 1: B4 DNA 1 with G42T
DNA 2: B4 DNA 2 with C34A
As to B6, the dissociation constant (Kd) in data set [4] was 7.79 -log10 M.

B7: 75 bp TATATA (dsDNA)
DNA 1: B4 DNA 1 with A39T, T40A, G42A
DNA 2: B4 DNA 2 with C34T, A36T, T37A
Take B7: the binding signal in data set [5] is ~10 fold lower affinity than TAATTA (N3).

B8: 75 bp TAATTA (m1) (dsDNA)
DNA 1: B4 DNA 1 with G42A
DNA 2: B4 DNA 2 with C34T
In the case of B8, the Kd in data set [6] was 8.43 -log10 M.

B9: 75 bp GAATTG (dsDNA)
DNA 1: B4 DNA 1 with T37G
DNA 2: B4 DNA 2 with A39C
In the case of B9, the binding signal in data set [5] is 19 fold lower affinity than TAATTA (N3).

B10: 150 bp TAATTG (m6) (dsDNA)
DNA 1: TTCTTAACCAAATTGAATTCTCGCCACCGATCGTGTTCGCCCGAAATAAATCTGGCCGAAAAGCCATCAATCTATAATTGCAATCTAACTGTGCCTCGGTTTATACCTCCAACTGCCGTTCACCGAAAAGGCCGACAGTTTTCCGACAAA
DNA 2: TTTGTCGGAAAACTGTCGGCCTTTTCGGTGAACGGCAGTTGGAGGTATAAACCGAGGCACAGTTAGATTGCAATTATAGATTGATGGCTTTTCGGCCAGATTTATTTCGGGCGAACACGATCGGTGGCGAGAATTCAATTTGGTTAAGAA
Regarding B10, in data set [7], the binding signal is ~2 fold higher affinity than 75 bp TAATTG (N2).

B11: 75 bp TAATTG high G/C (m3) (dsDNA)
DNA 1: CCCCCTCCCACCCCTCCACCCCCTCCCCTCCCCCCCTAATTGCCCTCCCCTCCCCCACCCCCTCCCCCACCCCCT
DNA 2: AGGGGGTGGGGGAGGGGGTGGGGGAGGGGAGGGCAATTAGGGGGGGAGGGGAGGGGGTGGAGGGGTGGGAGGGGG
Consider B11, for which the equilibrium dissociation constant (Kd) in data set [8] is about 700 nM.

B12: 150 bp TAATTG shuffled (m7) (dsDNA)
DNA 1: TACTCATCGATACTCAGTACTCGCGACGCATCGTGTACGCGCGACATACATCTCACTGATACGCGATCACTCTATAATTGCACTCTATCTGTGCATCGCTCTATAGCTCTATCTGCAGTACACTGATATGACAGACAGTATGCTCACATA
DNA 2: TATGTGAGCATACTGTCTGTCATATCAGTGTACTGCAGATAGAGCTATAGAGCGATGCACAGATAGAGTGCAATTATAGAGTGATCGCGTATCAGTGAGATGTATGTCGCGCGTACACGATGCGTCGCGAGTACTGAGTATCGATGAGTA
Turning to B12, the binding result in data set [2] is given as “binds”.
